Assay results published in patent publication US20230340070A1.

What was measured:
[1] = target: anti-TRP-1 antibody (TA99, BioXcell); experiment: cell-based or functional assay
[2] = target: anti-CD20 antibody (18B12, Absolute antibody); experiment: cell-based or functional assay

| B16-H2B-tdTomato target cell count after 48 hours co-culture with infected CD8+ T cells and anti-TRP-1 antibody (FIG. 8C; sham: around 750 B16 cells) [1] [B16 cells] | Substance | killing of B16-H2B-tdTomato target cells by infected CD4+ and CD8+ T cells with anti-TRP-1 antibody, incuCyte target cell numbers after 48 hours; effector : target ratio needed (effector : target ratio (x to 1)) [1] | killing of B16-H2B-tdTomato target cells by infected T cells with anti-TRP-1 antibody, incuCyte; effector : target ratio at which killing was induced (effector : target ratio (x:1)) [1] | A20 B-cell lymphoma cell death by Annexin-V staining in flow cytometry after co-culture with infected CD8+ T cells and anti-CD20 antibody [2] [%] |
| --- | --- | --- | --- | --- |
| 575 | Alpha-2A-gamma (extracellular, transmembrane and intracellular domains of FcγRI, T2A skipping peptide and FcRγ) (receptor) | > 8 | – | – |
| – | Alpha-gamma-2A-gamma (extracellular and transmembrane domains of FcγRI fused to the intracellular domain of FcRγ, T2A skipping peptide and FcRγ) | – | 2 | – |
| 460 | Alpha-gamma-2A-gamma (extracellular and transmembrane domains of FcγRI fused to the intracellular domain of FcRγ, T2A skipping peptide and FcRγ) (receptor) | – | – | 20 |
